Square brackets hold non-standard residues; d marks the D form. Ends that are not written are not given here. Cit = NC(=O)NCCC[C@H](N)C(=O)O
What was measured:
Assay in all cases: in vitro binding assay to recombinant MHC class II protein
[1] = biological target: MHC class II of the HLA DRB1 0401 genotype (Homo sapiens, UniProt P01903+P01911, A100K/A169T/F76Y/I96L/K127E/L162R/M171V/N62H/P40V/Q125Y/R42H/S133A/S149N/S66Y/V115G/V209L/W38E); parameters: key to Binds to 0401: *0101: the listing of the allele in the column for the allele indicates binding; *0401: “0401” in the “Binds to 0401” column indicates binding of the peptide to MHC class II of the HLA DRB1 0401 genotype; *0404: the listing of the allele in the column for the allele indicates binding; *0405: the listing of the allele in the column for the allele indicates binding; *0408: the listing of the allele in the column for the allele indicates binding; *1001: the listing of the allele in the column for the allele indicates binding; “no” or no data indicates no binding to a protein of that genotype; conditions: recombinant MHC class II, HLA DRB1 0401
Text: (§1) Binding of the peptides to recombinant MHC class II protein of various alleles has been confirmed in an in vitro binding assay and the results are shown in Tables 1, 2 and 3. In table 1, 2 and 3, the listing of the allele in the column for the allele indicates binding. Thus “0401” in the “Binds to 0401” column indicates binding of the peptide to MHC class II of the HLA DRB1 0401 genotype. “no” or no data indicates no binding to a protein of that genotype. Empty boxes indicate no binding or that binding has not been determined. In the tables it is also indicated if the peptide has a citrulline residue, where “yes” indicates the presence of a citrulline residue and “no” indicates the absence of a citrulline residue.
Thus for these peptides no binding to HLA-DR0401 was observed when citrulline was exchanged with the original amino acid arginine (Table 4). No binding of the citrullinated peptides was seen to HLA-DR 03 or 02 variants.

[2] = test system: MHC class II of the HLA DRB1 1001 genotype; parameters: species or system human; key to Binds to 1001: *0101: the listing of the allele in the column for the allele indicates binding; *0401: “0401” in the “Binds to 0401” column indicates binding of the peptide to MHC class II of the HLA DRB1 0401 genotype; *0404: the listing of the allele in the column for the allele indicates binding; *0405: the listing of the allele in the column for the allele indicates binding; *0408: the listing of the allele in the column for the allele indicates binding; *1001: the listing of the allele in the column for the allele indicates binding; “no” or no data indicates no binding to a protein of that genotype; conditions: recombinant MHC class II, HLA DRB1 1001
Text: as §1

[3] = test system: MHC class II of the HLA DRB1 0408 genotype; parameters: species or system human; key: *0101: the listing of the allele in the column for the allele indicates binding; *0401: “0401” in the “Binds to 0401” column indicates binding of the peptide to MHC class II of the HLA DRB1 0401 genotype; *0404: the listing of the allele in the column for the allele indicates binding; *0405: the listing of the allele in the column for the allele indicates binding; *0408: the listing of the allele in the column for the allele indicates binding; *1001: the listing of the allele in the column for the allele indicates binding; “no” or no data indicates no binding to a protein of that genotype
Text: as §1

[4] = biological target: MHC class II of the HLA DRB1 0405 genotype (Homo sapiens, UniProt P01903+P01911, A100R/A169T/D86S/F76Y/I96L/K127E/L162R/M171V/N62H/P40V/Q125Y/R42H/S133A/S149N/S66Y/V115G/V209L/W38E); parameters: key: *0101: the listing of the allele in the column for the allele indicates binding; *0401: “0401” in the “Binds to 0401” column indicates binding of the peptide to MHC class II of the HLA DRB1 0401 genotype; *0404: the listing of the allele in the column for the allele indicates binding; *0405: the listing of the allele in the column for the allele indicates binding; *0408: the listing of the allele in the column for the allele indicates binding; *1001: the listing of the allele in the column for the allele indicates binding; “no” or no data indicates no binding to a protein of that genotype
Text: as §1

[5] = biological target: MHC class II of the HLA DRB1 0404 genotype (Homo sapiens, UniProt P01903+P01911, A100R/A169T/F76Y/I96L/K127E/L162R/M171V/N62H/P40V/Q125Y/R42H/S133A/S149N/S66Y/V209L/W38E); parameters: key: *0101: the listing of the allele in the column for the allele indicates binding; *0401: “0401” in the “Binds to 0401” column indicates binding of the peptide to MHC class II of the HLA DRB1 0401 genotype; *0404: the listing of the allele in the column for the allele indicates binding; *0405: the listing of the allele in the column for the allele indicates binding; *0408: the listing of the allele in the column for the allele indicates binding; *1001: the listing of the allele in the column for the allele indicates binding; “no” or no data indicates no binding to a protein of that genotype
Text: as §1

[6] = biological target: MHC class II of the HLA DRB1 0101 genotype (Homo sapiens, UniProt P01903+P01911, A100R/D57E/F55L/F60I/F76Y/I96L/L162R/M171V/P40L/Q125E/R42F/V115G/Y59C); parameters: key: *0101: the listing of the allele in the column for the allele indicates binding; *0401: “0401” in the “Binds to 0401” column indicates binding of the peptide to MHC class II of the HLA DRB1 0401 genotype; *0404: the listing of the allele in the column for the allele indicates binding; *0405: the listing of the allele in the column for the allele indicates binding; *0408: the listing of the allele in the column for the allele indicates binding; *1001: the listing of the allele in the column for the allele indicates binding; “no” or no data indicates no binding to a protein of that genotype
Text: as §1

Row | Binds to 0401 [1] | Binds to 1001 [2] | Binds to 0408 [3] | Binds to 0405 [4] | Binds to 0404 [5] | Binds to 0101 [6] | Substance
1 | no | *1001 | no | *0405 | *0404 | *0101 | a-enolase 1: human alpha-enolase peptide, not citrullinated (MSILKIHAREIFDSR; listed as Homo sapiens)
2 | no | *1001 | *0408 | *0405 | no | *0101 | a-enolase 12: human alpha-enolase peptide, not citrullinated (RYMGKGVSKAVEHIN; listed as Homo sapiens)
3 | no | no | *0408 | no | *0404 | *0101 | a-enolase 15: human alpha-enolase peptide, not citrullinated (KTIAPALVSKKLNVT; listed as Homo sapiens)
4 | no | no | no | *0405 | no | *0101 | a-enolase 36: human alpha-enolase peptide, not citrullinated (ANFREAMRIGAEVYH; listed as Homo sapiens)
5 | – | *1001 | – | – | – | – | type II collagen 268: human collagen type II peptide, not citrullinated (PQGPRGDKGEAGEPG; listed as Homo sapiens)

The remaining lines, values behind:

Row | Substance | Binds to 0401 [1] | Binds to 1001 [2] | Binds to 0408 [3] | Binds to 0405 [4] | Binds to 0404 [5] | Binds to 0101 [6]
6 | a-enolase 13: human alpha-enolase peptide, not citrullinated (GVSKAVEHINKTIAP; listed as Homo sapiens) | no | no | no | no | *0404 | *0101
7 | a-enolase 14: human alpha-enolase peptide, not citrullinated (VEHINKTIAPALVSK; listed as Homo sapiens) | no | no | *0408 | no | *0404 | *0101
8 | a-enolase 26: human alpha-enolase peptide, not citrullinated (KGVPLYRHIADLAGN; listed as Homo sapiens) | *0401 | no | *0408 | *0405 | *0404 | *0101
9 | a-enolase 34: human alpha-enolase peptide, not citrullinated (QEFMILPVGAANFRE; listed as Homo sapiens) | *0401 | no | no | *0405 | *0404 | *0101
10 | a-enolase 38: human alpha-enolase peptide, not citrullinated (AEVYHNLKNVIKEKY; listed as Homo sapiens) | *0401 | no | *0408 | *0405 | no | *0101
11 | a-enolase 45: human alpha-enolase peptide, not citrullinated (KEGLELLKTAIGKAG; listed as Homo sapiens) | *0401 | no | *0408 | *0405 | *0404 | *0101
12 | a-enolase 57: human alpha-enolase peptide, not citrullinated (KSFIKDYPVVSIEDP; listed as Homo sapiens) | *0401 | *1001 | *0408 | *0405 | *0404 | *0101
13 | a-enolase 69: human alpha-enolase peptide, not citrullinated (LLKVNQIGSVTESLQ; listed as Homo sapiens) | no | no | no | *0405 | no | no
14 | type II collagen 263: human collagen type II peptide, not citrullinated (GDRGEAGAQGPMGPS; listed as Homo sapiens) | – | *1001 | – | – | – | –
15 | type II collagen 362: citrullinated human collagen type II peptide (PKGANGDPG[Cit]PGEPG; listed as Homo sapiens) | – | *1001 | – | – | – | –
16 | type II collagen 384: citrullinated human collagen type II peptide (QGP[Cit]GLPGTPGTDGP; listed as Homo sapiens) | – | *1001 | *0408 | – | – | –
